Measured values from the RNAGym collection of RNA variant scans (doi:10.1073/pnas.2313332121).

B1: TPR t1 (parent)
chain: GACCAAUCUGCCCUCAGAGCUCGAGAACAUCUUCGGAUGCAGAGGAGGCAGGCUUCGGUGGCGCGAUAGCGCCAACGUCCUCAACCUCCAAUGCAUCCCACCACAUGAUGAUGCCUGAAGAGCCUUGGUUUUUUG

Variants of: B1
Assay: polymerase ribozyme fitness, log enrichment relative to wild type (log ratio); higher = more active; in vitro selection for triplet polymerase activity
Summary of the method: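 Mutant libraries were PCR-built and transcribed for each subunit of a heterodimeric triplet polymerase ribozyme and selected for one round in triplicate at −7 °C, frozen, before gel excision of extended constructs and streptavidin-bead capture. Input and output libraries were Illumina-sequenced, keeping genotypes with ≥10 input reads and ≥1 read per output. Fitness is a logarithmic ratio of genotype to wild-type enrichment, in base 2, using inverse-variance-weighted replicate averages.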

Variant	polymerase ribozyme fitness (log ratio)
C62A C73A	-2.4
G48U C89G	-1.92
U7A C53U A74C	0.916
C13U C62A A118U G122A	-2.35
A29U C72G C104U G120C	-0.531
G35C G36A C40A C94U C114U	-6.41
C40G C62U G93C G128U	-1.46
A90G U116A	-1.88
G60A G128U	-1.57
C34U U112C C124A	-1.63
G45C C56U	-1.86
C8G G10C C11U C20A U33C C56G G63U C64G C72G C114G G127U	-6.79
A6C G36C	-1.4
A6U U54G C70A	-3.12
C11U G71U	0.863
C8G C13U G47C A74G	-0.735
G69U U116G	-2.69
C11A G42U	-2.71
G42U C94U G113A	-2.64
G61A C99U G113C	-5.29
C53A G63U C114U	-5.9

Variant	polymerase ribozyme fitness (log ratio)
U55A G69C U87G G93U	-1.37
A6U U78C	0.144
C4U U7A G69A	-2.49
C56G A66U C88U C115A	-1.49
G58C C98A	-5.61
G39C G120A	0.0157
G51A C123A	-1.89
C12U A37U	0.327
U21A C89U G110A U112C	-2.24
C40A G63A C79A C86A C104A C114U	-7.08
U21A G77A	0.00839
A18U C40A G120U C123A U129C	-4.63
G39A A75U G110C	-5.51
A37U U78C	-0.461
G48C G61U C124A	1.51
A91C C104U C123U	0.398
A6U A43C A50G G61A C115A U116C	-4.89
C56A G71U C82U	-1.78
A43C U87A G110A	-5.45
G48C C56A	-1.68
A41C G117U U131A	-4.61

Variant	polymerase ribozyme fitness (log ratio)
A121G U129C	0.0991
C4U U9G C11A C72U A74U U106A	-0.724
A2G G120A U129C G135U	-1.81
A41U A43U U54G G93A U106G	-3.16
C12A A16U C56G C124A	-0.00308
U32A C101U	-4.58
U7A C12A A83C	-0.0554
C56A A105C	-3.61
G60A C80U C89U U129G	-3.44
C13U G61C C101A	-2.82
A2C C53G C70G	-5.19
A29C	-2.15
C11G C13U U32C A68G	-3.2
C34A C73G	-2.27
C40U C97A	-5.23
A26G U54A A108G	-4.49
A29G U109G C114G	-6.5
C80G U112A	-5.14
A74C C89A A91G C102A U109G	-5.5
C4U C72U G117C	-4.14
C13U G39C G58A A118U G120U	0.174

Variant	polymerase ribozyme fitness (log ratio)
G10A G42U C49A C70G C98A U112G U130G	-6.93
G71C C88U A90C C115G	-4.94
A6U U33A	-4.02
A29U A74C	-1.73
C85U C86G A118C	-3.84
C3G G47U C64A A90C C104U G113A	-6.9
C28G C72A C98A G122U	-5.55
A37G G69A	-2.42
C11U G58A G69U	-0.296
U32A G47C C53G C86A	-6.08
C12U G52U C53G G61C	-4.41
G42U G71U G127U	-2.72
U81A A111U	-5.01
C49U C114U	-2.25
C11A G39U G71A	-2.63
U30G G69U G120A U126A U131G	-4.39
G39A G117U	-2.58
C85A C88U U96G G113U	-5.67
C11U U133G	-0.78
C8A G45C A105U	-1.9
C34U G61C C94U C98U G120U G127U	-5.79
